Test results: US12383631
Read-outs that look alike come from different tables or passages of the source.

Assays:
[1] = molecular target: recombinant Human Fc gamma RI/CD64 Protein (R&D systems, 1257-FC-050) (human) (UniProt P12314); test: ELISA: antibody coated on the plate (2.5 ug/ml), His-tagged recombinant human Fc gamma RI/CD64 titrated in solution (x-axis), anti-His-HRP/TMB, 450 nm
[2] = molecular target: recombinant biotinylated human FcRn (human) (UniProt P55899); test: FcRn competition AlphaLISA at pH 6: test antibody titrated (x-axis) against human IgG-coated acceptor beads (reference IgG) for biotinylated human FcRn on streptavidin donor beads; loss of signal
[3] = molecular target: recombinant Human Fc gamma RIIIA/CD16a Protein (R&D systems, 4325-FC-050) (human) (UniProt P08637); test: ELISA; antibody coated, receptor titrated, anti-His-HRP
[4] = molecular target: recombinant Human Fc gamma RIIA/CD32a (H167) Protein (R&D systems, 9595-CD-050) (human) (UniProt P12318); test: as above
[5] = molecular target: recombinant Human Fc gamma RI/CD64 Protein (R&D systems, 1257-FC-050) (human) (UniProt P12314); test: as above
[6] = molecular target: recombinant Human Fc gamma RIIB/CD32b Avi-tag Protein (R&D systems, AVI1875-050) (human) (UniProt P31994); test: as above
[7] = molecular target: human PD-1 on Jurkat T effector cells (human) (UniProt Q15116)
[8] = molecular target: recombinant biotinylated human FcRn (human) (UniProt P55899); test: AlphaLISA competition at pH 6; competitor: human IgG on acceptor beads
[9] = molecular target: recombinant Human Fc gamma RIIIA/CD16a Protein (R&D systems, 4325-FC-050) (human) (UniProt P08637); test: ELISA; immunocytokine coated, receptor titrated, anti-His-HRP
[10] = molecular target: recombinant Human Fc gamma RIIA/CD32a (H167) Protein (R&D systems, 9595-CD-050) (human) (UniProt P12318); test: as above
[11] = molecular target: recombinant Human Fc gamma RI/CD64 Protein (R&D systems, 1257-FC-050) (human) (UniProt P12314); test: as above
[12] = molecular target: recombinant Human Fc gamma RIIB/CD32b Avi-tag Protein (R&D systems, AVI1875-050) (human) (UniProt P31994); test: as above
[13] = molecular target: recombinant Human Fc gamma RI/CD64 Protein (R&D systems, 1257-FC-050) (human) (UniProt P12314); test: ELISA: immunocytokine coated on the plate (2.5 ug/ml), His-tagged recombinant human Fc gamma RI/CD64 titrated in solution (x-axis), anti-His-HRP/TMB, 450 nm
[14] = molecular target: human PD-1 on Jurkat T effector cells (human) (UniProt Q15116); remark: listed apart in the source
[15] = molecular target: T1, IL-18 receptor (IL-18Rα/IL-18Rβ) on cells (HEK-Blue IL18R reporter cells, NK-92, KG-1) (human) (UniProt Q13478); test: cell-based or functional assay
T1 sequence (looked up) 1: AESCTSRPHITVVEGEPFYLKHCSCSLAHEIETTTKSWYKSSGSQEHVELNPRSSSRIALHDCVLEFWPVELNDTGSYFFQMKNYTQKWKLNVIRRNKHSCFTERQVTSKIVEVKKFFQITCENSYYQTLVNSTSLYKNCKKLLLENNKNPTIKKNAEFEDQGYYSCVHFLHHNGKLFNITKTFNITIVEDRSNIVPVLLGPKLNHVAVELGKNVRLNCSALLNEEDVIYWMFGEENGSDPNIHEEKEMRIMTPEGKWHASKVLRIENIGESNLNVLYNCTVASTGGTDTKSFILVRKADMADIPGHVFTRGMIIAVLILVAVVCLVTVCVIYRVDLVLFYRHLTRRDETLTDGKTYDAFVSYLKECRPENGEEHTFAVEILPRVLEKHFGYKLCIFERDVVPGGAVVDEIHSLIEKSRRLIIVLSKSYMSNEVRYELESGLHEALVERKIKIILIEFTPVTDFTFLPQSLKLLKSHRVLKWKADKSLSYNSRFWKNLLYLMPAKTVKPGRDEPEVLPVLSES
T1 sequence (looked up) 2: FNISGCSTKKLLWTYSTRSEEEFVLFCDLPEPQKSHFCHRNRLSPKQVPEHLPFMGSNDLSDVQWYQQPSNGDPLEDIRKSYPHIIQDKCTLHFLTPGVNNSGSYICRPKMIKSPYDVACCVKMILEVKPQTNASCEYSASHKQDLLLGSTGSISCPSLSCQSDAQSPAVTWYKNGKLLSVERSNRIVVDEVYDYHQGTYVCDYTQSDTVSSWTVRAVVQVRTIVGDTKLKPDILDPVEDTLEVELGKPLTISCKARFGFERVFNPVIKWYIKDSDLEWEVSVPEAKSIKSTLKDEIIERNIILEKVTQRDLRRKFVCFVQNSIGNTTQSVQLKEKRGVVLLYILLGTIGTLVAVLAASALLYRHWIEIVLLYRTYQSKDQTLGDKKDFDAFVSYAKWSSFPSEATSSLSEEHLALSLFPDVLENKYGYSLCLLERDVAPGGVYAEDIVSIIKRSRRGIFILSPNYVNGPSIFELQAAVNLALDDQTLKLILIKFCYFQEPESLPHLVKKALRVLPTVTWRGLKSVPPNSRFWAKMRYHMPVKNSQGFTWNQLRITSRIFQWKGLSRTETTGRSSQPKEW

[16] = molecular target: human IL-18BP-His (human) (UniProt O95998); test: AlphaLISA of free IL-18BP after incubation with IL-18BP-His
[17] = molecular target: human IL-18BP-His (human) (UniProt O95998); test: AlphaLISA of free (unbound) IL-18BP: immunocytokine titrated (x-axis) and pre-incubated with human IL-18BP-His; anti-IL-18BP acceptor beads, biotinylated anti-IL-18BP antibody, streptavidin donor beads; the signal falls as IL-18BP is bound

Sequence of recombinant Human Fc gamma RI/CD64 Protein (R&D systems, 1257-FC-050) (human) (P12314 16-288 limits assumed): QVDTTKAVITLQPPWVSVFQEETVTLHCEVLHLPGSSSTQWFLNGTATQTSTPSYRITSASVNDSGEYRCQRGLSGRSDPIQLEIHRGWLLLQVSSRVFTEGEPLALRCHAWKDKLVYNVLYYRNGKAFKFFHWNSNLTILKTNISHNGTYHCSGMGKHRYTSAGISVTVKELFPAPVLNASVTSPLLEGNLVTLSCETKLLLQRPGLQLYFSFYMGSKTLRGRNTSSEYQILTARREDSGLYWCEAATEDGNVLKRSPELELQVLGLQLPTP
Sequence of recombinant Human Fc gamma RIIIA/CD16a Protein (R&D systems, 4325-FC-050) (human) (P08637 17-208 limits assumed): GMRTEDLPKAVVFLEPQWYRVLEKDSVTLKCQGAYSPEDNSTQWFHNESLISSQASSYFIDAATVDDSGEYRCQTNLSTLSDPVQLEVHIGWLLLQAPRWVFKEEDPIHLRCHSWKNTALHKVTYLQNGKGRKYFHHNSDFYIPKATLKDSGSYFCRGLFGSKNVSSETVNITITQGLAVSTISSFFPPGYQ
Sequence of recombinant Human Fc gamma RIIB/CD32b Avi-tag Protein (R&D systems, AVI1875-050) (human) (P31994 46-217 limits assumed): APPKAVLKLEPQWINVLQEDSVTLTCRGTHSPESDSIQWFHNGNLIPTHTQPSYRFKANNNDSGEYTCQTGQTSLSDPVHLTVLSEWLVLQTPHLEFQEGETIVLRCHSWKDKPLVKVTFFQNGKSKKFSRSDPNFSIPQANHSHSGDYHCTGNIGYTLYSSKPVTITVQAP
Sequence of human PD-1 on Jurkat T effector cells (human) (Q15116 25-288 limits assumed): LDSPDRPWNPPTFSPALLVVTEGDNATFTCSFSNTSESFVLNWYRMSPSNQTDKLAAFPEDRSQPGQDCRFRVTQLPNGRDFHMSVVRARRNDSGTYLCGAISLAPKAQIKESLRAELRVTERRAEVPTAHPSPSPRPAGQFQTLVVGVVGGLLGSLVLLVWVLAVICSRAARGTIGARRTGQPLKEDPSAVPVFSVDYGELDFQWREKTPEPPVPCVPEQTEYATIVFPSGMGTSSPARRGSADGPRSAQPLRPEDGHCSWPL
Sequence of human IL-18BP-His (human) (O95998 31-194 limits assumed): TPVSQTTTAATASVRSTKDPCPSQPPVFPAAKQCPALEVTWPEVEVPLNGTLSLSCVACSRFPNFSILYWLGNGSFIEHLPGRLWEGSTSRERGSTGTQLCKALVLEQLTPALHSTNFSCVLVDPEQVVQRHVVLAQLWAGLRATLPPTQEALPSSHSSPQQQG
Sequence of recombinant Human Fc gamma RIIA/CD32a (H167) Protein (R&D systems, 9595-CD-050) (human) (P12318 36-218 limits assumed): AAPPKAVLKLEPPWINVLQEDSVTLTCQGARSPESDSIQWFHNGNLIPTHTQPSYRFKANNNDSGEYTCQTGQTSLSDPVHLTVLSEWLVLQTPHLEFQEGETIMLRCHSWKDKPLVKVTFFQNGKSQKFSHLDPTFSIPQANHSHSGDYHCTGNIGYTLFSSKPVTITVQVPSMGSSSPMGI
Sequence of LZM-009 (antibody) (VH): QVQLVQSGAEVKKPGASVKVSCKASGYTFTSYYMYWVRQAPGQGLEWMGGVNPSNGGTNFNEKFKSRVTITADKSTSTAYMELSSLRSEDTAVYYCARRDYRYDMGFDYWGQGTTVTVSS
Sequence of LZM-009 (antibody) (VL): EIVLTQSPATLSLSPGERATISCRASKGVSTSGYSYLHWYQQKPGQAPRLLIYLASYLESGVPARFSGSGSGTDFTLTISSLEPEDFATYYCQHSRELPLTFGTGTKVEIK

Row | EC50 (read off the curve) [1] [nM] | IC50 (read off the curve) [2] [nM] | Kd [3] [nM] | Kd [4] [nM] | Kd [5] [nM] | Kd [6] [nM] | EC50 (read off the curve), NFAT-RE luciferase signal (PD-1/PD-L1 Blockade Bioassay) [7] [nM] | Kd [8] [nM] | Kd [9] [nM] | Kd [10] [nM] | Kd [11] [nM] | Kd [12] [nM] | EC50 (read off the curve) [13] [nM] | EC50 (read off the curve), NFAT-RE luciferase signal (PD-1/PD-L1 Blockade Bioassay) [14] [nM] | EC50, IFNγ secretion, NK92 cells [15] [nM] | EC50, IFNγ secretion, PD-1 positive KG-1 cells [15] [nM] | EC50, IFNγ secretion, parental KG-1 cells [15] [nM] | Kd [16] [nM] | IC50 (read off the curve) [17] [nM] | Substance
1 | 0.2 | 5 | 1710 | 1350 | 0.315 | 2630 | 2 | 6 |  |  |  |  |  |  |  |  |  |  |  | LZM-009 (antibody)
2 |  |  |  |  |  |  |  |  | 598 | 1890 | 0.25 | 436 | 0.3 | 3 | 0.073 | 0.0012 | 0.011 |  |  | Composition A (LZM-009 conjugated to IL-18 polypeptide of SEQ ID NO: 30) (from UniProt Q14116 37-193)
3 |  |  |  |  |  |  |  |  | 3300 |  |  |  |  |  | 0.027 | 0.0096 | 0.0166 | 10.5 | 10 | Composition C (Trastuzumab/Herceptin conjugated to IL-18 polypeptide of SEQ ID NO: 30)
